Source: article PMC7380489 (NAR Cancer, 2020)

B1: mouse ZFP568 residues 1-105 containing the first KRAB domain (1K) (domain or fragment)
chain: not shown
B2: human TRIM28 RBCC domain R184D (domain or fragment)
chain: CGVCRERLRPEREPRLLPCLHSACSACLGPAAPAAANSSGDGGAAGDGTVVDCPVCKQQCFSKDIVENYFMRDSGSKAATDAQDANQCCTSCEDNAPATSYCVECSEPLCETCVEAHQDVKYTKDHTVRSTGPAKSRDGERTVYCNVHKHEPLVLFCESCDTLTCRDCQLNAHKDHQYQFLEDAVRNQRKLLASLVKRLGDKHATLQKSTKEVRSSIRQVSDVQKRVQVDVKMAILQIMKELNKRGRVLVNDAQKVTEGQQERLERQHWTMTKIQKHQEHILRFASWALESDNNTALLLSKKLIYFQLHRAL

How the values were obtained:
[1] = target: B2; assay: AUC
AUC = target: the molecule itself; assay: AUC

| Binder | stoichiometry N [1] | stoichiometry N (AUC) |
| --- | --- | --- |
| B1 | 2 RBCC chains per 1K (2:1) |  |
| B2 |  | 2 |
